From paper PMC2954905, “Controlling Cellular P-TEFb Activity by the HIV-1 Transcriptional Transactivator Tat”

B1: 5'HPdm+pm (in vitro) (structured_RNA)
RNA: GGAUGUGAGGGCCUAGACCGACCGACAUCUGUCACCCCAUUGAUCGCCAGGGUUGAUUCGGCUCUAGACCGACGCUAGGCGGGUGUCCCCUUCCUCCCUCACCGCUCCAUG
B2: DHBS (structured_RNA)
RNA: GGGCCACUGACCCCAUUGAUCGGAAGAUCUGGCUGGCUACAGUGGAUC

Biological target: HEXIM1 (UniProt O94992 1-359)
Assay: EMSA; EMSA: 50 mM Tris-HCl pH 8.0, 100 mM NaCl, 14.4 mM 2-mercaptoethanol, 20 ng/ul E. coli tRNA, RT; ~2 fmol RNA; 4-5% native PAGE in 0.5x TBE, 2.5% glycerol
Settings: protein: recombinant, hairpin

Sequence of HEXIM1 (O94992 whole entry): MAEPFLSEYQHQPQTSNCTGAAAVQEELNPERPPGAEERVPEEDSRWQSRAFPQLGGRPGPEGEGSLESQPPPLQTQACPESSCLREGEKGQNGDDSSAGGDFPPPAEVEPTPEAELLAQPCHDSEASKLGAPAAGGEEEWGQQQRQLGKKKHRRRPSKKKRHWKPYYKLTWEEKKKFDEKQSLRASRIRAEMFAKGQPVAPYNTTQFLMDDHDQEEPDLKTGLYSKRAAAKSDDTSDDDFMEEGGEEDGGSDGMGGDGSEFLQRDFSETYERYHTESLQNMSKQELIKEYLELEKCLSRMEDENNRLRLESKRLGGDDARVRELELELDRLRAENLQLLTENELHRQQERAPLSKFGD

Binder | binding result (label: 32P internal) | binding result (label: 32P, GGAA tetraloop)
B1 | no binding | –
B2 | – | binds
